{
  "source": "paper PMC12376249",
  "origin": "cited, not measured here",
  "target": "Histone H1 (Homo sapiens) (UniProt P07305)",
  "sequence (P07305 2-194)": "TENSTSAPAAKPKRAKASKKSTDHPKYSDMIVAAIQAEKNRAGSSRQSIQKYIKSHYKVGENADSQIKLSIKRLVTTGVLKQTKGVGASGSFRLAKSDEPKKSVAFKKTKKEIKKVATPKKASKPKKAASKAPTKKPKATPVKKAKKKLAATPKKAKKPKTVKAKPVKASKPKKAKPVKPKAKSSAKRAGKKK",
  "test": "single-molecule FRET",
  "data": [
    {"substance": "Prothymosin alpha (from UniProt P06454)", "values": [
      {"measurement": "Kd", "result": 50, "unit": "pM"}
    ]}
  ]
}
